Where a chain is given by its changes, count along the chain named. Numbers in names are those of the source.
Experiments:
[1] = Enzyme half-life at 37° C. by monitoring enzyme activity (ΔA238) over 24 hrs; assay type: biochemical
[2] = Concentration to which the protein can be concentrated; assay type: physicochemical
[3] = Melting curves (thermal denaturation, SYPRO Orange fluorescence); assay type: physicochemical; details: fluorescence vs temperature, four independent experiments in triplicate
Procedure: Melting temperature assays were performed according to the protocol described by Ericsson et al. (31) Protein was diluted to 1 μM in a final volume of 150 μl 5×SYPRO® Orange protein stain (Invitrogen, Carlsbad, Calif.). Samples were aliquoted in triplicate volumes of 40 μl in a 96-well reaction plate. The plate was subjected to a linear thermal shift from 5 to 94° C. in one degree increments in a 7500 Fast Real-Time PCR System (Applied Biosystems, Branchburg, N.J.). The SYBR Green cutoff filter was used for fluorescence detection of denaturing protein-SYPRO® Orange binding. The resulting data were exported to Sigma Plot 9, and the sigmoidal part of the curve was averaged for each triplicate. The averaged curves were subsequently fit to a four parameter sigmoidal equation. The Tm values reported are the results of four independent experiments, each in triplicate, with multiple protein preparations.

[4] = Product assays (HPLC of arachidonic acid oxygenation products); assay type: biochemical
Procedure: Incubations were conducted in 0.5 ml 0.1 M Tris pH 7.5 containing 150 mM NaCl and 1 mM CaCl2 with 1-20 μg/ml 5-LOX enzyme. The reaction was initiated by addition of arachidonic acid (10-100 μM) added in 1-5 μl ethanol and monitored by UV spectroscopy until completion of reaction (5-10 min). Products were extracted by adjusting the solution to ˜pH 4 by addition of 50 μl 1 M KH2PO4 plus 5 μl 1N HCl and vigorous mixing with two volumes of dichloromethane. After a brief centrifugation to clear the phases, the lower organic layer was collected, washed twice with 0.5 ml water, taken to dryness under a stream of nitrogen, and then dissolved in a small volume of methanol for storage at −20° C. prior to HPLC. Reversed-phase HPLC was carried out using Agilent 1100 series equipment with a Waters C18 Symmetry column (25×0.46 cm), a solvent of acetonitrile/water/glacial acetic acid (60:40:0.01, v/v/v) or methanol/water/glacial acetic acid (80:20:0.01, v/v/v), a flow rate of 1 ml/min, with UV monitoring at 205 nm, 220 nm, 235 nm and 270 nm. The chirality of the product was confirmed as 5S: Mobile phase hexane/methanol 100:2; 1 ml/min; Chiralpak AD column (4.6×250 mm). The HETEs were made into the methyl esters before chiral analysis using ethereal diazomethane.

B1: Sol-5-LOX: more soluble form of human 5-LOX, SEQ ID NO: 2 (W13E, F14H, Δ40-44GS, W75G, L76S, C240A, C561A) (protein)
chain: MGSSHHHHHHSSGLVPRGSHMPSYTVTVATGSQEHAGTDDYIYLSLVGSAGCSEKHLLDKGSFERGAVDSYDVTVDEELGEIQLVRIEKRKYGSNDDWYLKYITLKTPHGDYIEFPCYRWITGDVEVVLRDGRAKLARDDQIHILKQHRRKELETRQKQYRWMEWNPGFPLSIDAKCHKDLPRDIQFDSEKGVDFVLNYSKAMENLFINRFMHMFQSSWNDFADFEKIFVKISNTISERVMNHWQEDLMFGYQFLNGANPVLIRRCTELPEKLPVTTEMVECSLERQLSLEQEVQQGNIFIVDFELLDGIDANKTDPCTLQFLAAPICLLYKNLANKIVPIAIQLNQIPGDENPIFLPSDAKYDWLLAKIWVRSSDFHVHQTITHLLRTHLVSEVFGIAMYRQLPAVHPIFKLLVAHVRFTIAINTKAREQLICECGLFDKANATGGGGHVQMVQRAMKDLTYASLCFPEAIKARGMESKEDIPYYFYRDDGLLVWEAIRTFTAEVVDIYYEGDQVVEEDPELQDFVNDVYVYGMRGRKSSGFPKSVKSREQLSEYLTVVIFTASAQHAAVNFGQYDWASWIPNAPPTMRAPPPTAKGVVTIEQIVDTLPDRGRSCWHLGAVWALSQFQENELFLGMYPEEHFIEKPVKEAMARFRKNLEAIVSVIAERNKKKQLPYYYLSPDRIPNSVAI
modifications: Δ40-44 replaced by GS; Sol-5-LOX
- half-life at 37° C. [1]: ~7 h
- can be concentrated to [2]: 2 mg/mL
- Tm (with s.d.) [3]: 56.6(±0.4) ° C.
- products formed from arachidonic acid ([4]; HPLC chromatogram, FIG. 6D / FIG. 8): produces both the intermediate 5S-HPETE and the product leukotriene A4

B2: S663D-Stable-5-LOX: Stable-5-LOX with Serine 663 replaced with Aspartic acid, SEQ ID NO: 4, mimics phosphorylated state (protein)
chain: B1 chain with K671E, K672N, K673L, S681D
modifications: S663D-Stable-5-LOX
- change of product specificity by the S663D amino acid change ([4]; Serine 663 replaced with Aspartic acid, method not described): converted the enzyme from a 5-LOX to a 15-LOX

Source: US8877476B2, “Soluble and stable human 5-lipoxygenase” (Board of Supervisors of Louisiana State University and …, priority 2010, dated 2014)
